Test: soluble on expression in E. coli; label from the status in PepcDB or PDB records

Sequence	soluble on expression in E. coli
MGSSHHHHHHSSGRENLYFQGHMSKFVITCIAHGENLPKETIDQIAKEITESSAKDVSINGTKKLSARATDIFIEVAGSIVQKDLKNKLTNVIDSHNDVDVIVSVDNEYRQAKKLFVFDMDSTLIYQEVIELIAAYAGVEEQVHEITERAMNNELDFKESLRERVKLLQGLQVDTLYDEIKQKLEVTKGVPELCKFLHKKNCKLAVLSGGFIQFAGFIKDQLGLDFCKANLLEVDTDGKLTGKTLGPIVDGQCKSETLLQLCNDYNVPVEASCMVGDGGNDLPAMATAGFGIAWNAKPKVQKAAPCKLNTKSMTDILYILGYTDDEIYNRQ	soluble
MGSSHHHHHHSSGRENLYFQGMHYQPKQDLLNDRIILVTGASDGIGREAAMTYARYGATVILLGRNEEKLRQVASHINEETGRQPQWFILDLLTCTSENCQQLAQRIVVNYPRLDGVLHNAGLLGDVCPMSEQNPQVWQDVMQINVNATFMLTQALLPLLLKSDAGSLVFTSSSVGRQGRANWGAYAASKFATEGMMQVLADEYQQRLRVNCINPGGTRTAMRASAFPTEDPQKLKTPADIMPLYLWLMGDDSRRKTGMTFDAQPGRKPGISQ	soluble
MGSSHHHHHHSSGRENLYFQGMPSLTPRCIIVRAGQTEWSKSGQYTGLTDLPLTPYGEGQMLRTGESVFRNNQFLNPDNITYIFTSPRLRARQTVDLVLKPLSDEQRAKIRVVVDDDLREWEYGDYEGMLTREIIELRKSRGLDKERPWNIWRDGCENGETTQQIGLRLSRAIARIQNLHRKHQSEGRASDIMVFAHGHALRYFAAIWFGLGVQKKCETIEEIQNVKSYDDDTVPYVKLESYRHLVDNPCFLLDAGGIGVLSYAHHNIDEPALELAGPFVSPPEEESQHGDV	soluble
MGSSTGFHHADHVNYSSNLNKEEILEQLLLSYEGLSDGQVNWVCNLSNASSLIWHAYKSLAVDINWAGFYVTQASEENTLILGPFQGKVACQMIQFGKGVCGTAASTKETQIVPDVNKYPGHIACDGETKSEIVVPIISNDGKTLGVIDIDCLDYEGFDHVDKEFLEKLAKLINKSCVFK	soluble
MGSYLSVPAYFTSRDLFRCSECQDSLTNWYYEKDGKLYCPKDYWGKFGEFCHGCSLLMTGPFMVAGEFKYHPECFACMSCKVIIEDGDAYALVQHATLYCGKCHNEVVLAPMFERLSTESVQEQLPYSVTLISMPATTEGRRGFSVSVESACSNYATTVQVKEVNRMHISPNNRNAIHPGDRILEINGTPVRTLRVEEVEDAISQTSQTLQLLIEHDPVSQRLDQLRLEARLAPHMQNAGHPHALSTLDTKENLEGTLRRRSLRRSNSISKSPGPSSPKEPLLFSRDISRSESLRCSSSYSQQIFRPCDLIHGEVLGKGFFGQAIKVTHKATGKVMVMKELIRCDEETQKTFLTEVKVMRSLDHPNVLKFIGVLYKDKKLNLLTEYIEGGTLKDFLRSMDPFPWQQKVRFAKGIASGMAYLHSMCIIHRDLNSHNCLIKLDKTVVVADFGLSRLIVEERKRAPMEKATTKKRTLRKNDRKKRYTVVGNPYWMAPEMLNGKSYDETVDIFSFGIVLCEIIGQVYADPDCLPRTLDFGLNVKLFWEKFVPTDCPPAFFPLAAICCRLEPESRAPPGAAGEGPGCADDEGPVRRQGKVTIKYDPKELRKHLNLEEWILEQLTRLYDCQEEEISELEIDVDELLDMESDDAWASRVKELLVDCYKPTEAFISGLLDKIRAMQKLSTPQKK	soluble
MGTGQRKDPSQQRSQETVARILSATGQVLRAKGYTGCSTNAIAEAAGISKGSVYQYFANKDEIIEVLIDKIMEETTATFGTQLEQAVAKGTFLKDAALQSQLLAVLDRYCDILGSLLNDAPHLALTAHRSVRIEERCRDLLRTYVTLNPSAIGPGVDLEALLLVLTVSYREVSLEYLRRDLRDRRNELATVLYDMTMGGLAGRVTRGV	not soluble
MGTICDAASPTFMLQHWVRDRRRGSRISLEHAIKRQCHDTARLYGLDDRGVIAPGYLADINVIDFDRVRLLKPWLAFDLPAGGKRLLQKAEGYDYTIKGGKVTFRNGEWTGATPGNLIRGPQRADLMEAAELEHHHHHH	not soluble
MGTRSPHIVLRNATYLNSYIREWMQANIWIYDDRIIYVGEKLPEQLHECEVIDCDGKYVVPSYIEPHAHPYQLYNPETLANHAMQFGTTTFINDNLEHHHHHH	soluble
MGTVLFEDKASETKGSDIYHRIIPDAESYIKEQARTVLATLYNSPEDSITPVNKIHYTLEDIEGISAKGGGNGDVTIFYSTRHIEKSFAENDTAKLFFETRGVLLHELTHAYQLEPQGIGSYGTNRVFWAFIEGMADAVRVANGGFDGPNARPKGGNYMDGYRTAGYFFVWLRDNKDPEFLRKFNRSTLEVIPWSFDGAIKHILGTEYSIDELWHEYQVAVGDIQVLEHHHHHH	not soluble
MGTVMIRNVYKGVHNMKLENGWETSFLEVVQNSEFKKEALLSQLLCQDSEEVEELVDDYGYEELVEREHDDELAEILGEELFSEMERQVFLSSNPEEKLISFVNGLGFHVLDWIVLLETEFGIDSANFTSDAVKVLEKRFRQFPYIEDKTIFDMTFGESMDVLESVTGLQLKEKMNV	not soluble
MGVSPAAPASGIRRPCYLVLSSHDFRTPRRANIHFITDQLALRGTTRFFSLRYSRLSRMKGDMRLPLDDTANTVVSHNGVDCYLWRTTVHPFNTRRSWLRPVEDAMFRWYAAHPPKQLLDWMRESDVIVFESGIAVAFIELAKRVNPAAKLVYRASDGLSTINVASYIEREFDRVAPTLDVIALVSPAMAAEVVSRDNVFHVGHGVDHNLDQLGDPSPYAEGIHAVAVGSMLFDPEFFVVASKAFPQVTFHVIGSGMGRHPGYGDNVIVYGEMKHAQTIGYIKHARFGIAPYASEQVPVYLADSSMKLLQYDFFGLPAVCPNAVVGPYKSRFGYTPGNADSVIAAITQALEAPRVRYRQCLNWSDTTDRVLDPRAYPETRLYPHPPTAAPQLSSEAALSHHHHHHH	soluble
MGYHTFDAGRADKLEDAQERYRSLSAEELCWALSASSDETVADLGSGTGFYTDDVAPAVDHVYAVDIQEAMHDYYRKKGVPDNVDLVTSAVDDLPFDTSSLDAAFSTMTYHEFASDGALREVARVLKPGGTFAIADWAASGSGRNGPPVDERFSAAEATDALRQHGFTVEFEAVRPETFLLVVSADLEHHHHHH	soluble
MGYIQSGKSKVEIVNVSETVTSAANVSQYPVESGAPITDNMMYTGGPVTISGWILAKNGNAAEQAYNTLVAWQKDVRWIVYRGRSYFKNAVIQDISKGYDTVENGFTITITLQPIRVAKTIWEKIPQPPVAKQPSKPSNAVYVTVQPGNTYWGWWQQYGTSIQQLRDWNKWPDRFIPIGARARVK	not soluble
MGYRIEFDPRAEKELEKLDREVARRILRFLRERVATLEDPRSLGEPLRGPELGRFWKYRVGDYRLICHIQDREATVLVLRVGHARDVYR	soluble
MGYTLADKIWRSHVVRSAEGEPDLVYIDMHLLHEVNTPAAFAGLRAAGRTVRRPDLTLGTEDHNTPTDDVLRMITDPGAVEQLDHIRRNCRDFGIELYSLGDSARGIVHVIGPELGLTQPGMTLVCCDSHTSTHGAFGVLAFGIGTSQVEHVLATQTLPMAPMQN	not soluble
MHCPFCRHPDSRVIDSRETDEGQAIRRRRSCPECGRRFTTVETAVLAVVKRSGVTEPFSREKVISGVRRACQGRQVDDDALNLLAQQVEDSVRAAGSPEIPSHDVGLAILGPLRELDEVAYLRFASVYRSFSSADDFAREIEALRAHRNLSAHS	soluble
MHEITLCQRALELIEQQASAYGAKRVTAVWIKIGAFSCVETSALSFCFDLVCRGTIAEGCKLHLEEQEAECWCEHCQQYVTLLTHRVRRCPQCHSDTLRIVADDGLQIRRIEIDETED	not soluble
MHESARHIVDLYQRHARAWDQRRRANPEAFEGEQAWLERFRRVMGQGGQVLDLGCGGGEPIARNLIEHQCAVTGVDSSATLLDHCRQRFAGQQWIHADMRSLALDQDFAGILAWNSLFHLSPDDQRAMFTVFERHAGPGCALMFTSGPEAGEAIGEFEGEALYHASLSPGEYCTLLDTHGFEVVQHISEDPDCCGFTVWLARAIDWGLEHHHHHH	not soluble
MHEWALADAIVRTVLDYAQKEGASRVKAVKVVLGELQDVGEDIVKFAMEELFRGTIAEGAEIIFEEEEAVFKCRNCGHVWKLKEVKDKLDERIREDIHFIPEVVHAFLSCPKCGSHDFEVVKGRGVYISGIMIEKEGEELEHHHHHH	soluble
